According to article PMC3702631 (Structure (London, England : 1993), 2013):
Positions count from the first letter of the chain named. Names may count otherwise.

B1: mouse TBK1 residues 1-657, K38A (GST tag cleaved) (domain or fragment, UniProt Q9WUN2 1-657, looked up)
chain: MQSTSNHLWLLSDILGQGATANVFRGRHKKTGDLYAVAVFNNISFLRPVDVQMREFEVLKKLNHKNIVKLFAIEEETTTRHKVLIMEFCPCGSLYTVLEEPSNAYGLPESEFLIVLRDVVGGMNHLRENGIVHRDIKPGNIMRVIGEDGQSVYKLTDFGAARELEDDEQFVSLYGTEEYLHPDMYERAVLRKDHQKKYGATVDLWSVGVTFYHAATGSLPFRPFEGPRRNKEVMYKIITGKPSGAISGVQKAENGPIDWSGDMPLSCSLSQGLQALLTPVLANILEADQEKCWGFDQFFAETSDVLHRMVIHVFSLQHMTAHKIYIHSYNTAAVFHELVYKQTKIVSSNQELIYEGRRLVLELGRLAQHFPKTTEENPIFVTSREQLNTVGLRYEKISLPKIHPRYDLDGDASMAKAVTGVVCYACRTASTLLLYQELMRKGVRWLVELVKDDYNETVHKKTEVVITLDFCIRNIEKTVKVYEKLMKVNLEAAELGEISDIHTKLLRLSSSQGTIESSLQDISSRLSPGGLLADTWAHQEGTHPRDRNVEKLQVLLNCITEIYYQFKKDKAERRLAYNEEQIHKFDKQKLYYHATKAMSHFSEECVRKYEAFKDKSEEWMRKMLHLRKQLLSLTNQCFDIEEEVSKYQDYTNELQET
B2: mouse TBK1 residues 1-657, S172A (GST tag cleaved) (domain or fragment, UniProt Q9WUN2 1-657, looked up)
chain: B1 chain with A38K, S172A

Biological target: the molecule itself
Assay: SEC

| Protein | stoichiometry N |
| --- | --- |
| B1 | 2 |
| B2 | 2 |
